# Laboratory results as given in publication PMC3377380.
# Target: GST-Obsc_(6316–6345) (Rattus norvegicus)
# Assay: SPR
substance,measurement,value
sAnk1-I102F (MBP fusion) (domain or fragment),fold slower dissociation than wild type,3 times
